Test results published in PMC4475429 (2015).

Molecular target: PKA RIα (Homo sapiens, UniProt P10644)
Assay: fluorescence polarization competition vs RI-STAD-3

Chain of PKA RIα (P10644 whole entry): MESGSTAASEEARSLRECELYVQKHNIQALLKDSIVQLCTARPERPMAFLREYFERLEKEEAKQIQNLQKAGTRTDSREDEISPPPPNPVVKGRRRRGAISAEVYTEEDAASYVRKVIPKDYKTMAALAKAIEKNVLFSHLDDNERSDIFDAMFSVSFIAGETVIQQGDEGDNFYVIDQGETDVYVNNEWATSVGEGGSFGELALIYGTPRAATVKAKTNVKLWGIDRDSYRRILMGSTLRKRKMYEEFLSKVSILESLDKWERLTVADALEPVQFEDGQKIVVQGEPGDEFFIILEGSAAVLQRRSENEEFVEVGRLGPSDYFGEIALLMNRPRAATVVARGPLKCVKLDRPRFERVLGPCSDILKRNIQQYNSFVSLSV

## WKNVLQGGESTKERFENSNIGTA [Ht31 AKB]
  IC50: 1500 nM
